Two substances from PMC4222252 can be followed below.

Experiment [1] addresses His6-tagged HIV-1 integrase E10R/E13R/K42E (HIV-1).
Experiment [2] concerns the target His6-tagged HIV-1 integrase E10R/E13R (HIV-1).
Experiment [3] addresses His6-tagged HIV-1 integrase E10R/E13R/K42E (HIV-1). Kind of experiment: pull-down.
Experiment [4] deals with His6-tagged HIV-1 integrase E10R/E13R (HIV-1). The experiment can be described thus: pull-down.
Experiment [5] addresses His6-tagged HIV-1 integrase K42E (HIV-1). The experiment can be described thus: pull-down.

As to “LEDGF/p75 K401E/K402E/R405E (from UniProt O75475 1-530) (natural protein)”, the concerted integration activity in vitro, percent of WT IN with WT LEDGF/p75 in experiment [1] amounted to 78%; in experiment [2], 55%. Moreover, the percent of the WT LEDGF/p75 bound by WT IN in experiment [3] worked out at 15%; in experiment [4] it was 11%; in experiment [5], 42%.
“lens epithelium-derived growth factor (LEDGF)/p75, wild type (from UniProt O75475 1-530) (natural protein)”: the concerted integration activity in vitro, percent of WT IN with WT LEDGF/p75 in experiment [1] was 18%; in experiment [2], 53%.
